Assay results reported in patent US20230235011A1.

Columns and labels:
[1] = target: VEGF165 (UniProt P15692); test: SPR (Biacore T100, 25 C); binder captured on anti-human IgG CM5 chip, VEGF165 as analyte
[2] = target: recombinant human CD28 (human) (UniProt P10747); test: ELISA; CD28 coated at 100 ng/ml, fusion protein titrated, anti-human IgG Fc-HRP

Sequence of control protein 301-8 (aflibercept) (Fc fusion) (chain): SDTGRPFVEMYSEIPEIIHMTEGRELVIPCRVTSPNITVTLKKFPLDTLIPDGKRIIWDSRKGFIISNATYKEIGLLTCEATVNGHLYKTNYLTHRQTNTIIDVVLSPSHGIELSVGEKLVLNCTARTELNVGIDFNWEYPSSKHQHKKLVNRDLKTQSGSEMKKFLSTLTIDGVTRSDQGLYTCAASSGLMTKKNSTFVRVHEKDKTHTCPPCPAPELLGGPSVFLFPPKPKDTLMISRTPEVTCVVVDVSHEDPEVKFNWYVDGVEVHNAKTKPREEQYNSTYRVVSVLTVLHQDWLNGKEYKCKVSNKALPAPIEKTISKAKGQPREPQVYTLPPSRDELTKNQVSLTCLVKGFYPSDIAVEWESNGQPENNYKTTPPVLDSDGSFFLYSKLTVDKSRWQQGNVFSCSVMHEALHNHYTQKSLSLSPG
Sequence of VEGF165 (P15692 other isoform, or with tags, fused parts or gaps limits assumed): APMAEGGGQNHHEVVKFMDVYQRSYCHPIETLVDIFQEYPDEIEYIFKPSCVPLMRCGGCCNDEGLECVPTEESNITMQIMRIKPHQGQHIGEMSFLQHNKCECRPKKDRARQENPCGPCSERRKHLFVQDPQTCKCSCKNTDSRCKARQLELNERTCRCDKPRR
Sequence of fusion protein BY24.30 (Fc-hCD80, IgG4) (Fc fusion) (chain): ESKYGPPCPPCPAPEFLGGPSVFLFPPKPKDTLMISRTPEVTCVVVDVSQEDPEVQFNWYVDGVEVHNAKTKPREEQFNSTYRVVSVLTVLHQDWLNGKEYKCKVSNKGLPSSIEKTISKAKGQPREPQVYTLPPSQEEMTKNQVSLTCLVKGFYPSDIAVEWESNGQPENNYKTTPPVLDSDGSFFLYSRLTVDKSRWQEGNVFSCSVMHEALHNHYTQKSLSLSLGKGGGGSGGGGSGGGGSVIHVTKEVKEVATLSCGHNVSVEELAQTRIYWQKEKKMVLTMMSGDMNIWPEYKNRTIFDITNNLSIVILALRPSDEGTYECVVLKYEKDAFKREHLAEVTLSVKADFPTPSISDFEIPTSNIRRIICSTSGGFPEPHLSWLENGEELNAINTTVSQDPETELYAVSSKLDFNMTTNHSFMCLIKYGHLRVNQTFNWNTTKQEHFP
Sequence of fusion protein BY24.23 (hCD80-Fc, IgG4) (Fc fusion) (chain): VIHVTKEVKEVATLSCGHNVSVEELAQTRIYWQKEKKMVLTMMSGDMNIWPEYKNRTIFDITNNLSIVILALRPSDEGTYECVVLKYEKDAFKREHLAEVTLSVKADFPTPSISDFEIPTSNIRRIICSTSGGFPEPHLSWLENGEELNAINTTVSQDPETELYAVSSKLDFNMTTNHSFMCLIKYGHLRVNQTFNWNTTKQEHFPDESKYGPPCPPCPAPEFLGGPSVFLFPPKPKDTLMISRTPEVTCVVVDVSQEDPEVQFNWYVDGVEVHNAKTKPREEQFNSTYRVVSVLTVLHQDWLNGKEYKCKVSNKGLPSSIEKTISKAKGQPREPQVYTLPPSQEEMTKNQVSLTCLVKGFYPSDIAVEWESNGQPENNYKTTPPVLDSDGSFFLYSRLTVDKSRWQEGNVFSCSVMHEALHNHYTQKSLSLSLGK

Kd [1] [pM] | koff [1] [s⁻¹] | kon [1] [M⁻¹ s⁻¹] | EC50 [2] [µg/mL] | Substance
7.35 | 4.33e-05 | 5.89e+06 | – | control protein 301-8 (aflibercept) (Fc fusion)
– | – | – | 6.2 | fusion protein BY24.23 (hCD80-Fc, IgG4) (Fc fusion)
– | – | – | 0.97 | fusion protein BY24.30 (Fc-hCD80, IgG4) (Fc fusion)
